# Measured values taken from patent publication US20160159862A1 (PROTAGONIST THERAPEUTICS, published 2016).
# Bridge positions count the residues as written; N and C are the ends. Square brackets hold non-standard residues; d marks the D form. Ends that are not written are not given here. 1Nal = N[C@@H](Cc1cccc2ccccc12)C(=O)O; 2Nal = N[C@@H](Cc1ccc2ccccc2c1)C(=O)O; d1Nal = N[C@H](Cc1cccc2ccccc12)C(=O)O; d2Nal = N[C@H](Cc1ccc2ccccc2c1)C(=O)O; NMeR = CN[C@@H](CCCNC(=N)N)C(=O)O; hPhe = N[C@@H](CCc1ccccc1)C(=O)O; NMeK = CN[C@@H](CCCCN)C(=O)O; Pen = CC(C)(S)[C@H](N)C(=O)O; dNMeK = CN[C@H](CCCCN)C(=O)O
# B1: SEQ ID NO 143 (peptide)
# peptide: [Pen][NMeR]SDTL[Pen][2Nal]E
# modifications: disulfide 1-7 (inferred); not fully specified (bridges); printed as Cyclo-[Pen-(N-Me-R)-S-D-T-L-Pen-(2-Nal)-E], disulfide
# B2: SEQ ID NO 12 (peptide)
# peptide: Ac-[Pen][NMeR]SDTL[Pen][1Nal][dE][dNMeK]-NH2
# modifications: disulfide 1-7
# SMILES: CC(=O)N[C@@H]1C(=O)N(C)[C@@H](CCCNC(=N)N)C(=O)N[C@@H](CO)C(=O)N[C@@H](CC(=O)O)C(=O)N[C@@H]([C@@H](C)O)C(=O)N[C@@H](CC(C)C)C(=O)N[C@H](C(=O)N[C@@H](Cc2cccc3ccccc23)C(=O)N[C@H](CCC(=O)O)C(=O)N(C)[C@H](CCCCN)C(N)=O)C(C)(C)SSC1(C)C
# B3: SEQ ID NO 11 (peptide)
# peptide: Ac-[Pen][NMeR]SDTL[Pen][d2Nal]E[dK]-NH2
# modifications: disulfide 1-7
# SMILES: CC(=O)N[C@@H]1C(=O)N(C)[C@@H](CCCNC(=N)N)C(=O)N[C@@H](CO)C(=O)N[C@@H](CC(=O)O)C(=O)N[C@@H]([C@@H](C)O)C(=O)N[C@@H](CC(C)C)C(=O)N[C@H](C(=O)N[C@H](Cc2ccc3ccccc3c2)C(=O)N[C@@H](CCC(=O)O)C(=O)N[C@H](CCCCN)C(N)=O)C(C)(C)SSC1(C)C
# B4: SEQ ID NO 88 (peptide)
# peptide: Ac-[Pen][NMeR]SDTL[Pen][2Nal][dK]-NH2
# modifications: disulfide 1-7
# SMILES: CC(=O)N[C@@H]1C(=O)N(C)[C@@H](CCCNC(=N)N)C(=O)N[C@@H](CO)C(=O)N[C@@H](CC(=O)O)C(=O)N[C@@H]([C@@H](C)O)C(=O)N[C@@H](CC(C)C)C(=O)N[C@H](C(=O)N[C@@H](Cc2ccc3ccccc3c2)C(=O)N[C@H](CCCCN)C(N)=O)C(C)(C)SSC1(C)C
# B5: SEQ ID NO 50 (peptide)
# peptide: Ac-[Pen][NMeR]SDTL[Pen][2Nal][hPhe][dK]-NH2
# modifications: disulfide 1-7
# SMILES: CC(=O)N[C@@H]1C(=O)N(C)[C@@H](CCCNC(=N)N)C(=O)N[C@@H](CO)C(=O)N[C@@H](CC(=O)O)C(=O)N[C@@H]([C@@H](C)O)C(=O)N[C@@H](CC(C)C)C(=O)N[C@H](C(=O)N[C@@H](Cc2ccc3ccccc3c2)C(=O)N[C@@H](CCc2ccccc2)C(=O)N[C@H](CCCCN)C(N)=O)C(C)(C)SSC1(C)C
# B6: SEQ ID NO 10 (peptide)
# peptide: Ac-[Pen][NMeR]SDTL[Pen][d1Nal]E[dK]-NH2
# modifications: disulfide 1-7
# SMILES: CC(=O)N[C@@H]1C(=O)N(C)[C@@H](CCCNC(=N)N)C(=O)N[C@@H](CO)C(=O)N[C@@H](CC(=O)O)C(=O)N[C@@H]([C@@H](C)O)C(=O)N[C@@H](CC(C)C)C(=O)N[C@H](C(=O)N[C@H](Cc2cccc3ccccc23)C(=O)N[C@@H](CCC(=O)O)C(=O)N[C@H](CCCCN)C(N)=O)C(C)(C)SSC1(C)C
# Biological target: rh integrin α4β7 (R&D Systems #5397-A30) (human) (UniProt P13612)
# Experiment: α4β7-MAdCAM competition ELISA
row,IC50 [nM],Binder
1,> 10,Ac-[Pen][NMeR]SDTL[Pen][2Nal]E[NMeK]-NH2 (disulfide 1-7 (inferred); also: homodimer via DIG) [SEQ ID NO 138]
2,> 25,Ac-[Pen][NMeR]SDTL[Pen][1Nal][dE][dK]-NH2 (disulfide 1-7 (inferred)) [SEQ ID NO 8]
3,250,B1
4,< 10,Ac-[Pen][NMeR]SDTL[Pen][2Nal][dE][dK]-NH2 (disulfide 1-7 (inferred); also: homodimer via DIG linker) [SEQ ID NO 29]
5,> 25,B2
6,> 25,B3
7,> 10,B4
8,> 10,Ac-[Pen][NMeR]SDTL[Pen][2Nal][dE][dNMeK]-NH2 (disulfide 1-7 (inferred)) [SEQ ID NO 13]
9,> 10,B5
10,> 10,B6

# Biological target: α4β7 integrin on human cells (human, UniProt P13612 34-1032; P26010 20-798)
# Experiment: cell-based or functional assay
row,α4β7 cell (Hu) IC50 [nM],Binder
1,> 10,Ac-[Pen][NMeR]SDTL[Pen][2Nal]E[NMeK]-NH2 (disulfide 1-7 (inferred); also: homodimer via DIG) [SEQ ID NO 138]
2,> 100,Ac-[Pen][NMeR]SDTL[Pen][1Nal][dR][dK]-NH2 (disulfide 1-7 (inferred); also: homodimer via DIG) [SEQ ID NO 114]
3,> 500,Ac-[Pen][NMeR]SDTL[Pen][1Nal][dL][dK]-NH2 (disulfide 1-7 (inferred); also: homodimer via DIG) [SEQ ID NO 113]
4,> 50,Ac-[Pen][NMeR]SDTL[Pen][1Nal][dH][dK]-NH2 (disulfide 1-7 (inferred); also: homodimer via DIG) [SEQ ID NO 112]
5,> 10000,B1
6,> 10,Ac-[Pen][NMeR]SDTL[Pen][2Nal][dE][dK]-NH2 (disulfide 1-7 (inferred); also: homodimer via DIG linker) [SEQ ID NO 29]
7,> 100,Ac-[Pen][NMeR]SDTL[Pen][2Nal][dE][dNMeK]-NH2 (disulfide 1-7 (inferred)) [SEQ ID NO 13]
8,≤ 10,Ac-[Pen][NMeR]SDTL[Pen]WE(OMe)[dK]-NH2 (disulfide 1-7 (inferred); also: homodimer linked by DIG) [SEQ ID NO 86]

# Biological target: α4β7 integrin on mouse TK1 cells (mouse, UniProt Q00651 41-1039; P26011 20-806)
# Experiment: cell-based or functional assay
# Chain of α4β7 integrin on mouse TK1 cells (Q00651 41-1039, chain 1 of 2): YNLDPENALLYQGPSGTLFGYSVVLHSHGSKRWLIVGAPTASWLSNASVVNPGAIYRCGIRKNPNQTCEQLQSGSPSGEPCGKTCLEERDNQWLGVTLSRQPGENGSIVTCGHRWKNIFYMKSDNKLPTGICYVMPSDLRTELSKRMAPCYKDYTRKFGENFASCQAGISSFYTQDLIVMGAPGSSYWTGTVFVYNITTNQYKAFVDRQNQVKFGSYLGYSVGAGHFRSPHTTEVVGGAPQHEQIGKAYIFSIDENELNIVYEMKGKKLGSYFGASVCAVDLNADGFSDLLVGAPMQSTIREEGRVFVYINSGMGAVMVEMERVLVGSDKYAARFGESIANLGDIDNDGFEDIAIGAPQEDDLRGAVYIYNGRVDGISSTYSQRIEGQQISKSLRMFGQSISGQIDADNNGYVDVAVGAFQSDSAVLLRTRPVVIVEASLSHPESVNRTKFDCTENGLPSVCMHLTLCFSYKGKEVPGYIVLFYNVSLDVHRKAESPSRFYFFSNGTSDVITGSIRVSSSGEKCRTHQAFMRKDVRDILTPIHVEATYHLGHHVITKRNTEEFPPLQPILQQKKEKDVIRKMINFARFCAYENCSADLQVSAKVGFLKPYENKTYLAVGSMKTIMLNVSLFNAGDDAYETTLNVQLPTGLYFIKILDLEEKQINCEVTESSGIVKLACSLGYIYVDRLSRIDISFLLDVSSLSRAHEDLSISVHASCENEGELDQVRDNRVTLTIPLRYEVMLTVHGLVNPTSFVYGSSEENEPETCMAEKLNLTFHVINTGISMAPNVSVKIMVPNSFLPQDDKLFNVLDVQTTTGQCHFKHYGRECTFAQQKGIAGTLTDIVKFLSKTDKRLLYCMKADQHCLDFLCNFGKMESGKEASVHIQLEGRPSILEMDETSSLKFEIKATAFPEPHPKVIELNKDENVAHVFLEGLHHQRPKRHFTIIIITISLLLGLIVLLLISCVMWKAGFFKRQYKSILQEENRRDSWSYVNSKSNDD
# Chain of α4β7 integrin on mouse TK1 cells (P26011 20-806, chain 2 of 2): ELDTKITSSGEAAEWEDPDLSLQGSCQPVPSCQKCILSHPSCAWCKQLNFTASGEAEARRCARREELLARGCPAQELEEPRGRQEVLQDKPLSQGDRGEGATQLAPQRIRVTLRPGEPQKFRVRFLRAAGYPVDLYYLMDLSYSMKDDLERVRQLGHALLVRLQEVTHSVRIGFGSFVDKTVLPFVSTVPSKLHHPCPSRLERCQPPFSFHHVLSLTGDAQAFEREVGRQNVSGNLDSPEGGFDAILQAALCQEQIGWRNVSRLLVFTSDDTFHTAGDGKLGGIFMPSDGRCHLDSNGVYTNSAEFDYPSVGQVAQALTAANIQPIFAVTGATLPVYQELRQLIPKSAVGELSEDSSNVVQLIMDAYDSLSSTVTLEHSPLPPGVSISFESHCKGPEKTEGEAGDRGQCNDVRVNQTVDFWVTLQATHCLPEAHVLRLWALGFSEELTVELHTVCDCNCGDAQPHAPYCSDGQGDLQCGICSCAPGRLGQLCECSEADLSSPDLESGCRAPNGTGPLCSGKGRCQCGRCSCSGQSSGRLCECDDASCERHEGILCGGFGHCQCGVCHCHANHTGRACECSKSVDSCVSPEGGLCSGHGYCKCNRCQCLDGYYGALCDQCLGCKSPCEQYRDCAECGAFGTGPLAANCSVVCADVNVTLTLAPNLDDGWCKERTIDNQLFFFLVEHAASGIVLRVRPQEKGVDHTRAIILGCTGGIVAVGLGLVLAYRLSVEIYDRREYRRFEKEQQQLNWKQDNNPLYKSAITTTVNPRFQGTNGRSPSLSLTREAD
row,α4β7 cell(Mu) IC50 [nM],Binder
1,≤ 10,Ac-[Pen][NMeR]SDTL[Pen]WE(OMe)[dK]-NH2 (disulfide 1-7 (inferred); also: homodimer linked by DIG) [SEQ ID NO 86]
